Results published in patent US12528864 (GlaxoSmithKline, dated 2026).
Read-outs that look alike come from different tables or passages of the source.

How the values were obtained:
[1] = molecular target: T1, cynomolgus monkey CD96, native, on primary cynomolgus monkey T cells (cynomolgus monkey, UniProt A0A2K5TWV6 22-569); assay: flow cytometry on activated cynomolgus monkey T cells, pooled donor
T1 construct: whole, on cells
T1 sequence: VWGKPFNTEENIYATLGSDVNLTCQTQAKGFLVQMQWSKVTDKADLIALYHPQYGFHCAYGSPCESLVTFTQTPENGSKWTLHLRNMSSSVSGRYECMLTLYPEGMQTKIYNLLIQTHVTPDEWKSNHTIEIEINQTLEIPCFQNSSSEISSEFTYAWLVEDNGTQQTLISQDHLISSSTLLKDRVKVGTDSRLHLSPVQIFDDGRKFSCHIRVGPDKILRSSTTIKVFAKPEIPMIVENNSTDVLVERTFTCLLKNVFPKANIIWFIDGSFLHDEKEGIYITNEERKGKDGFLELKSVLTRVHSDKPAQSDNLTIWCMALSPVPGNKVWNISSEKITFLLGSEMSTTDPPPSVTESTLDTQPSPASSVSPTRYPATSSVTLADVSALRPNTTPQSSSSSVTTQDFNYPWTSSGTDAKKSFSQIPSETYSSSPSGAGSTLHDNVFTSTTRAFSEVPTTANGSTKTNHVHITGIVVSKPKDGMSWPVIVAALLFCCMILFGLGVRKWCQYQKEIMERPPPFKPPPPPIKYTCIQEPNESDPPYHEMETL

recombinant human CD96v2 = molecular target: T2, recombinant human CD96v2 (human, UniProt P40200-2 22-503, limits assumed, biotinylated (site not stated)); assay: MSD-SET solution equilibrium titration, antibody titrated against constant biotinylated CD96, free antigen detected
T2 construct: Soluble recombinant protein used in MSD-SET; also called Biotinylated human CD96 protein
T2 sequence (looked up): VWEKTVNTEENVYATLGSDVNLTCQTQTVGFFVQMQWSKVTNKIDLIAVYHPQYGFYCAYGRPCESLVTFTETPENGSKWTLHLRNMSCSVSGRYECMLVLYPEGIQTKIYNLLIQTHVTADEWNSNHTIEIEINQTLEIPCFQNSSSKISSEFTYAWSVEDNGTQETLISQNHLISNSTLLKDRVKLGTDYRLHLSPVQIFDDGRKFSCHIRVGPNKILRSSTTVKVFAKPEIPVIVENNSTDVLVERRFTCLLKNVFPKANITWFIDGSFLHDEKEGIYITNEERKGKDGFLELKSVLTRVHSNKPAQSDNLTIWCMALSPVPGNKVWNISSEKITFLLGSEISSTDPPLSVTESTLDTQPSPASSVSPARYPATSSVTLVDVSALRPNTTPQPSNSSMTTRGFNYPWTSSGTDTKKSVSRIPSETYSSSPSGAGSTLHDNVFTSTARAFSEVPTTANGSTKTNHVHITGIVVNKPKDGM

[2] = molecular target: T1, cynomolgus monkey CD96, native, on …; assay: flow cytometry on activated cynomolgus monkey T cells, donor 1
[3] = molecular target: T3, cynomolgus monkey CD96v2 expressed on cells (CHO cells; transiently transfected HEK cells) (cynomolgus monkey, UniProt A0A2K5TWV6 22-569); assay: flow cytometry on transiently transfected HEK cells (Cyno CD96v2)
T3 construct: the cell is named under assay; also called CHO-cyCD96; Cyno CD96v2
T3 sequence: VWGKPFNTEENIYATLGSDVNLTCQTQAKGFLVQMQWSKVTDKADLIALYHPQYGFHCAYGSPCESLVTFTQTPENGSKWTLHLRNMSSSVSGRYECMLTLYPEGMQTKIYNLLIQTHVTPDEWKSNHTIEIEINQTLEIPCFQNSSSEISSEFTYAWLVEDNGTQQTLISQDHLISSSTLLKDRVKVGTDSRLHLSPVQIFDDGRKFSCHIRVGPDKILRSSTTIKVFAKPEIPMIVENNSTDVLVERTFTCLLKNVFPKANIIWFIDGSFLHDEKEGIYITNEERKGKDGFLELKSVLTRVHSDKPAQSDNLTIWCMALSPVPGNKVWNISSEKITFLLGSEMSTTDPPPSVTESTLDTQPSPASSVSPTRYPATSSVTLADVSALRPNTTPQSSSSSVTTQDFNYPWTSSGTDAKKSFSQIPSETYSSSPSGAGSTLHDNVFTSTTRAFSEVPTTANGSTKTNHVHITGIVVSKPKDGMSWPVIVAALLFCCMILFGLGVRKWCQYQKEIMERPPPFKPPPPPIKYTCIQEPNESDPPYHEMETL

[4] = molecular target: T4, human CD96v2 expressed on cells (CHO cells; transiently transfected HEK cells) (human, UniProt P40200-2 22-569); assay: flow cytometry on transiently transfected HEK cells; upper end of range, n = 3
T4 construct: whole, on cells; the cell is named under assay; also called CHO-huCD96; hCD96v2
T4 sequence (looked up): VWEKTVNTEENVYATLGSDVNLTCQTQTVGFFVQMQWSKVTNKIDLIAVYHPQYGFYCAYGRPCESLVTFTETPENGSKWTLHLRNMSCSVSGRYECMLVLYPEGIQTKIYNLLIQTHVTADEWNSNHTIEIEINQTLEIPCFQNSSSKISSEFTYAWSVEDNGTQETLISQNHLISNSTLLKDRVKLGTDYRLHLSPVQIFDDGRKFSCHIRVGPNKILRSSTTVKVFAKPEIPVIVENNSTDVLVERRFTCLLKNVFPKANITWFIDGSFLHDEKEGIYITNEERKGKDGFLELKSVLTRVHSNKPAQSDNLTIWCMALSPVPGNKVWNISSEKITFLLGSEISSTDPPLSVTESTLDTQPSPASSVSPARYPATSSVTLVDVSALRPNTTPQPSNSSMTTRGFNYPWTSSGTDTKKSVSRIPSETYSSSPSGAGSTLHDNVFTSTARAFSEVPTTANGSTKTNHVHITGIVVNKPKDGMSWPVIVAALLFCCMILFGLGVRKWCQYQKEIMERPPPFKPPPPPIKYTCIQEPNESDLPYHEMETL

[5] = molecular target: T3, cynomolgus monkey CD96v2 expressed on …; assay: flow cytometry on transiently transfected HEK cells (Cyno CD96v2); remark: listed apart in the source
[6] = molecular target: T5, blood derived cynomolgus monkey CD96v2 on transiently transfected HEK cells (cynomolgus monkey); assay: flow cytometry on transiently transfected HEK cells (Cyno blood derived CD96v2)
T5 construct: also called Blood derived Cyno CD96v2

[7] = molecular target: T3, cynomolgus monkey CD96v2 expressed on …; assay: flow cytometry on CHO cells expressing cynomolgus CD96v2

B1: 42Y073-86F08-66 (antibody)
heavy: not shown
light: DIQLTQSPSSLSASVGDRVTITCRASQSISSYLNWYQQKPGKAPKLLIYAASSLQSGVPSRFSGSGSGTDFTLTISSLQPEDFATYYCQQVLHTITFGGGTKVEIKRTVAAPSVFIFPPSDEQLKSGTASVVCLLNNFYPREAKVQWKVDNALQSGNSQESVTEQDSKDSTYSLSSTLTLSKADYEKHKVYACEVTHQGLSSPVTKSFNRGEC
notes: also called GSK 6097608; GSK6097608
EC50 (read off the curve) [1]: ~0.05 nM
IC50 (read off the curve) (recombinant human CD96v2): ~0.06 nM
EC50 (read off the curve) [2]: ~0.05 nM
EC50 (read off the curve) [3]: ~6 nM
EC50 [4]: 8.78 nM
EC50 (read off the curve) [5]: ~6 nM
EC50 (read off the curve) [6]: ~5 nM
EC50 [7]: 0.02 nM
